Results on 36 sequences are retold here after the supplement of paper PMC12764529.

The nature of series [1]: folding stability dG unfold from trypsin proteolysis; higher = more stable. A digest of the protocol: (§1)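 Unfolding free energy was derived, per protease or combined, against a sequence-predicted unfolded-state K50 and a shared folded-state K50, starting from K50 inferred by Bayesian fitting of sequencing counts. Digestion with trypsin and chymotrypsin was carried out on designed mini-proteins under 80 residues without cysteine in a PA-tagged cDNA display construct. Only designs with AlphaFold2 dimer inter-PAE above 15 were kept.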

A short description of series [2]: folding stability dG unfold from chymotrypsin proteolysis; higher = more stable. A digest of the protocol: as §1
Series [3] is described as follows: folding stability dG unfold (combined trypsin and chymotrypsin); higher = more stable. A digest of the protocol:
as §1

± gives the half width of the 95% confidence interval.

On to “SAGGSSSSALVTVPRTETFPGTTLTTETLITIDPETGTVKVTSTVYSEGEPVEVVPSTVPAAEVTLSAGGSA [r2_188_JUSTAS]”, for which the “folding stability dG unfold” value in series [1] came to 0.566 ± 0.036 kcal/mol; in series [2] it was 0.503 ± 0.051 kcal/mol; in series [3], 0.592 ± 0.077 kcal/mol.
With “SAGGSSSSLIGEIKLPSNVTIKIERSSKGVRTAVVTFPETGKVVTLPLDPNVSIEEIIEKVKEIVEKKSAGG [r13_624_JUSTAS]”, the “folding stability dG unfold” value in series [1] amounted to 2.06 ± 0.093 kcal/mol; in series [2], 1.29 ± 0.043 kcal/mol; in series [3] it was 1.71 ± 0.066 kcal/mol.
The corresponding values for “SAGGSTITTDVPEARELLEELVKAGIKNIKVTVELDGSTVTLEVPPDELEKLVEEIPPEAKVTLEASSAGGS [r16_636_JUSTAS]” are 0.442 ± 0.019 kcal/mol, 1.44 ± 0.041 kcal/mol and 1.12 ± 0.062 kcal/mol.
The like results for “SAGGSTVSVVPFPDYLLVVTTDVRRTPVPDTDTVSTELTTTVTVIPLPDVPPPVLPFLDADGNPYYASAGGS [r8_46_TrMRF]” were, in that order, 1.01 ± 0.093 kcal/mol, 0.522 ± 0.11 kcal/mol and 0.694 ± 0.093 kcal/mol.
The like results for “SAGGSVDIKRIEIYHPPDDKIYIRIDAVASPEHPEDPELRKAQAEALRKPVIEELMKKLGIEPEELSAGGSA [r2_306_JUSTAS]” were, in that order, 0.241 ± 0.075 kcal/mol, 0.61 ± 0.073 kcal/mol and 0.468 ± 0.12 kcal/mol.
As to “SAGGSVEIWILLPPNNPDLDKIREKLRDEPGIDDVNVKVVKPTPGYWVFEIEVNGDPEVADKIRDLISAGGS [r16_394_TrROS]”, the “folding stability dG unfold” value is 1.09 ± 0.1 kcal/mol in series [1], 1.61 ± 0.18 kcal/mol in series [2] and 1.51 ± 0.26 kcal/mol in series [3].
The like results for “SAGGSVRVETEFERLPDGPIVVRVRITLPNGETLEFTAVYYPEPSGIPMFVPEPVPPNAIEGIDIKVSAGGS [r16_95_TrMRF]” were, in that order, 2.55 ± 0.09 kcal/mol, 1.78 ± 0.047 kcal/mol and 2.11 ± 0.16 kcal/mol.
Take “SAGGSVTITSITSIDTSSLSPDSVVTADVPDGKPVLIKGKVPPDGSVILTFYTPDGKPVATFTIPSSAGGSA [r2_323_JUSTAS]”: the “folding stability dG unfold” value in series [1] turned out to be 0.508 ± 0.017 kcal/mol; in series [2], 0.779 ± 0.056 kcal/mol; in series [3], 0.669 ± 0.06 kcal/mol.
The like results for “SAGGSVTLPDATVVKVPPSQDWQEHADRLAAEIREAGADYEVSVESTPDGSVLITITVPGRTWTMVTSAGGS [r16_771_JUSTAS]” were, in that order, 1.15 ± 0.032 kcal/mol, 0.49 ± 0.077 kcal/mol and 0.936 ± 0.03 kcal/mol.
For the sequence “SAGGSVTTETDEYFYPDNLFTVAKTTLYVGSGPVEATAVSYPTFTLVNVHYPDGSVDTFLFTLTDDSSAGGS [r16_108_TrMRF]”, the “folding stability dG unfold” value in series [1] was 2.38 ± 0.11 kcal/mol; in series [2], 3.56 ± 0.06 kcal/mol; in series [3], 3.08 ± 0.13 kcal/mol.
On to “SAGGSVVTTTFTYPDGTVVTTTTTPRPETLLTTTTTTTFYPDKPVKVAPGKEVVTTVTTTTTTVTPAASAGG [r13_780_JUSTAS]”, for which the “folding stability dG unfold” value in series [1] came out at 0.378 ± 0.03 kcal/mol; in series [2], 0.574 ± 0.12 kcal/mol; in series [3], 0.54 ± 0.069 kcal/mol.
The corresponding values for “SAGGSWVIIIQITIRNPGEERKITIPMEEIQGMPLEQIADNLRKLPGIGDVTIEIQEFPPPKPNDPSAGGSA [r2_282_TrROS]” are 2.31 ± 0.11 kcal/mol, 2.34 ± 0.099 kcal/mol and 2.31 ± 0.2 kcal/mol.
The like results for “SAGGSYLDEVREKILKEYPLKPGEPKEIEITVPLPSGRTVKIKIPVTVDPKTGKVEAKFEVLEETKESAGGS [r16_634_JUSTAS]” were, in that order, 0.395 ± 0.033 kcal/mol, 1.22 ± 0.028 kcal/mol and 0.934 ± 0.074 kcal/mol.
The like results for “SAGGSYLVEVVIEYPKQGVKKTVKLFVNNDPKKAEELAEDIIKELGYPDAKIEIKIIPVDPNDPRVLGSAGG [r13_682_JUSTAS]” were, in that order, 1.98 ± 0.034 kcal/mol, 2.445 ± 0.022 kcal/mol and 2.25 ± 0.057 kcal/mol.
“SAGGTFQVKDPNGKQKPVQLRVRITFEFKGGDKQTFEIEVEGATVDDLREFANSLMNKGFKPVSIEIWSAGG [r13_227_TrROS]”: the “folding stability dG unfold” value in series [1] was determined as 1.595 ± 0.0094 kcal/mol; in series [2], 2.03 ± 0.047 kcal/mol; in series [3], 1.88 ± 0.048 kcal/mol.
“SAGGTIKITIKAENLTEEEKEELAKKIADELKKKGYKVKKVEVTVEKEKEKTVTITLENGKKIEVKLSAGGS [r8_485_TrROS_Hall]”: the “folding stability dG unfold” value in series [1] worked out at 1.49 ± 0.072 kcal/mol; in series [2] it was 2.56 ± 0.038 kcal/mol; in series [3] it was 2.31 ± 0.18 kcal/mol.
The like results for “SAGGTITIELDGVTIEVRVEEKDGTLTLTAKVYNKDTGEVFEIEITITRKEDGSVTITIKITKIEPLPSAGG [r13_1004_TrROS_Hall]” were, in that order, 2.44 ± 0.16 kcal/mol, 3.96 ± 0.28 kcal/mol and 3.87 ± 0.53 kcal/mol.
Regarding “SAGGTIYIWFPMKVDEAVDLAKELAENKDWKIEIYNGGKEHEIELDKIEPVPPENVRVYIEIEPKPDSAGGS [r16_628_TrROS]”, the “folding stability dG unfold” value in series [1] was determined as 0.423 ± 0.041 kcal/mol; in series [2] it was 1.64 ± 0.082 kcal/mol; in series [3] it was 1.26 ± 0.097 kcal/mol.
As for “SAGGTMKYDVEQKYKYPDPDGNPGGEGKHTQEVEVPPPPVIIIPPNDRELAKELAEKFGIPITPDDIASAGG [r19_315_TrROS]”, the “folding stability dG unfold” value in series [1] was 0.854 ± 0.18 kcal/mol; in series [2], 0.5 ± 0.25 kcal/mol; in series [3], 0.609 ± 0.39 kcal/mol.
The corresponding values for “SAGGTSPVTIPVTFDDLPPDAVDEAKARAEELAEELRAQGHEVLSVTIEIEPGRVTVTLTVTFPGGAPLSAG [r5_515_JUSTAS]” are 1.93 ± 0.081 kcal/mol, 0.623 ± 0.054 kcal/mol and 1.3 ± 0.12 kcal/mol.
The corresponding values for “SAGGTTTTLTFETEEEAREFAEELREKHPDVVLEVEIRRETRTVTVPGVGEVREVDRVVVTVTLTPASAGGS [r16_828_JUSTAS]” are 2.03 ± 0.054 kcal/mol, 3.27 ± 0.064 kcal/mol and 2.89 ± 0.07 kcal/mol.
On to “SAGGVDKGPPDAEVSREVLPRKLPNGKELLEEIRTRVLASGSLLVDRTIRDPNSDKVESEELVDPGASAGGS [r8_129_JUSTAS]”, for which the “folding stability dG unfold” value in series [1] was 0.021 ± 0.31 kcal/mol; in series [2] it was -0.0363 ± 0.16 kcal/mol; in series [3], -0.0613 ± 0.32 kcal/mol.
For the sequence “SAGGVEREPTEEDLLVATAEFLIEVRDPDSDYPLVEPVPITLPFTSLEDLLEELRRLKAEVEEALASSAGGS [r16_624_TrMRF]”, the “folding stability dG unfold” value in series [1] came to 1.88 ± 0.092 kcal/mol; in series [2] it was 1.63 ± 0.073 kcal/mol; in series [3], 1.7 ± 0.14 kcal/mol.
The corresponding values for “SAGGVKEIEIPNGMRITDVDPPDGYWKIKIENPDNGKEVERPIPPGDKLKIPPNAPVTITEIEPYPPSAGGS [r16_123_TrROS]” are -0.613 ± 0.27 kcal/mol, -0.103 ± 0.48 kcal/mol and under -1 kcal/mol.
The like results for “SAGGVNPTDPAQATTTETTPSLVTLPNGEKVLVTTTTTTTPDGSTTTTTTTTNAATGATTSTTTTTASAGGS [r8_252_JUSTAS]” were, in that order, 1.97 ± 0.14 kcal/mol, 2.39 ± 0.14 kcal/mol and 2.19 ± 0.14 kcal/mol.
As for “SAGGVREIAKRIANFAREHGYEVEVDEIEPPPNGYVVIDAKIQMRDGGKPVHEFPISIRFPPPPGDPSAGGS [r8_102_TrROS]”, the “folding stability dG unfold” value in series [1] turned out to be 3.98 ± 0.43 kcal/mol; in series [2], 3.51 ± 0.16 kcal/mol; in series [3] it was 3.86 ± 0.68 kcal/mol.
With “SAGGWHTIQINVRRPGKPITPEKIKEALREAYPGYPIEVEDINPEDGRITITVPENAMPRIKEALMKSAGGS [r8_235_TrROS]”, the “folding stability dG unfold” value in series [1] amounted to 1.06 ± 0.041 kcal/mol; in series [2], 0.896 ± 0.076 kcal/mol; in series [3], 1.01 ± 0.11 kcal/mol.
Consider “SAGGWITVNQIRDLAKELPPGWRIKIKIEYPGKKHEHTIPPGDPITIPPNMPPEDITRIEITEIEPYSAGGS [r16_97_TrROS]”, for which the results for the “folding stability dG unfold” value in series [1], in series [2] and in series [3] were 0.476 ± 0.062 kcal/mol, 0.444 ± 0.18 kcal/mol and 0.575 ± 0.11 kcal/mol, respectively.
The like results for “SAGGWMTWEFELEDEDGKDIKIEVEQNPGNPWWRVKIEHKGGKPIPEIPIPADSPDDAIDQARDLLKSAGGS [r16_158_TrROS]” were, in that order, 0.17 ± 0.21 kcal/mol, -0.0698 ± 0.49 kcal/mol and -0.149 ± 0.33 kcal/mol.
The corresponding values for “SAGGWRLRIHIENPGNGRWITHTFPMPPGNIEKIADDMLEMLPGWKITGVEIVYEPGWITITARVKPKSAGG [r13_196_TrROS]” are 2.252 ± 0.016 kcal/mol, 2.9 ± 0.035 kcal/mol and 2.74 ± 0.064 kcal/mol.
On to “SAGGWWIITIEFPNPEQIKKILEEAGWKVDIERRPNGSVTIFFPPDDVDKIKKAFPGFEINIHPIPPNSAGG [r13_261_TrROS]”, for which the “folding stability dG unfold” value in series [1] is 3.58 ± 0.11 kcal/mol; in series [2] it was 4.45 ± 0.093 kcal/mol; in series [3], 4.25 ± 0.089 kcal/mol.
The like results for “SAGGYKYKREKYRDPENGQPRERYKREPPPPPPPSISININAPPEMADKIADILQDLLPNMPVGINGSAGGS [r8_437_TrROS]” were, in that order, 2.45 ± 0.088 kcal/mol, 3.04 ± 0.23 kcal/mol and 2.84 ± 0.21 kcal/mol.
“SAGGYLVRIEMPNGREHEYPVKDIDDAASRFRDHLGFPPNMKLKVEVYDPKDGEKKERTLTIPMPKPKSAGG [r13_145_TrROS]”: the “folding stability dG unfold” value came out at 0.0313 ± 0.092 kcal/mol in series [1], 0.504 ± 0.12 kcal/mol in series [2] and 0.378 ± 0.069 kcal/mol in series [3].
Consider “SAGGYVRIRIELQEKRKPPDGKQQQRKKKITITVRLPPNEEMRMPDGKDIDPGKSAEELADYALDNLSAGGS [r16_440_TrROS]”, for which the “folding stability dG unfold” value was 2.16 ± 0.08 kcal/mol in series [1], 1.68 ± 0.077 kcal/mol in series [2] and 1.92 ± 0.15 kcal/mol in series [3].
For the sequence “SAGGYYIEFRNPNNGNTVTIPPELIEAIKSGDPDKLKKLPPWFRDALDNIDRVEIQPPPPVPPVPPGKSAGG [r13_233_TrROS]”, the “folding stability dG unfold” value in series [1] was determined as 0.68 ± 0.051 kcal/mol; in series [2] it was 0.958 ± 0.041 kcal/mol; in series [3], 0.887 ± 0.053 kcal/mol.
Take “SAGIEIDIEVDPENGFIKITAKIHNPDGNPVYEMEMWIPVDNGRIYRVDIRINPDNGKIELDIEPFPLNSAG [r5_34_TrROS]”: the “folding stability dG unfold” value in series [1] worked out at 3.48 ± 0.29 kcal/mol; in series [2], 3.88 ± 0.24 kcal/mol; in series [3], 3.79 ± 0.26 kcal/mol.
